Molecular target: C4b (UniProt P0C0L4)
Assay: cell-based or functional assay

Chain of C4b (P0C0L4 20-1744): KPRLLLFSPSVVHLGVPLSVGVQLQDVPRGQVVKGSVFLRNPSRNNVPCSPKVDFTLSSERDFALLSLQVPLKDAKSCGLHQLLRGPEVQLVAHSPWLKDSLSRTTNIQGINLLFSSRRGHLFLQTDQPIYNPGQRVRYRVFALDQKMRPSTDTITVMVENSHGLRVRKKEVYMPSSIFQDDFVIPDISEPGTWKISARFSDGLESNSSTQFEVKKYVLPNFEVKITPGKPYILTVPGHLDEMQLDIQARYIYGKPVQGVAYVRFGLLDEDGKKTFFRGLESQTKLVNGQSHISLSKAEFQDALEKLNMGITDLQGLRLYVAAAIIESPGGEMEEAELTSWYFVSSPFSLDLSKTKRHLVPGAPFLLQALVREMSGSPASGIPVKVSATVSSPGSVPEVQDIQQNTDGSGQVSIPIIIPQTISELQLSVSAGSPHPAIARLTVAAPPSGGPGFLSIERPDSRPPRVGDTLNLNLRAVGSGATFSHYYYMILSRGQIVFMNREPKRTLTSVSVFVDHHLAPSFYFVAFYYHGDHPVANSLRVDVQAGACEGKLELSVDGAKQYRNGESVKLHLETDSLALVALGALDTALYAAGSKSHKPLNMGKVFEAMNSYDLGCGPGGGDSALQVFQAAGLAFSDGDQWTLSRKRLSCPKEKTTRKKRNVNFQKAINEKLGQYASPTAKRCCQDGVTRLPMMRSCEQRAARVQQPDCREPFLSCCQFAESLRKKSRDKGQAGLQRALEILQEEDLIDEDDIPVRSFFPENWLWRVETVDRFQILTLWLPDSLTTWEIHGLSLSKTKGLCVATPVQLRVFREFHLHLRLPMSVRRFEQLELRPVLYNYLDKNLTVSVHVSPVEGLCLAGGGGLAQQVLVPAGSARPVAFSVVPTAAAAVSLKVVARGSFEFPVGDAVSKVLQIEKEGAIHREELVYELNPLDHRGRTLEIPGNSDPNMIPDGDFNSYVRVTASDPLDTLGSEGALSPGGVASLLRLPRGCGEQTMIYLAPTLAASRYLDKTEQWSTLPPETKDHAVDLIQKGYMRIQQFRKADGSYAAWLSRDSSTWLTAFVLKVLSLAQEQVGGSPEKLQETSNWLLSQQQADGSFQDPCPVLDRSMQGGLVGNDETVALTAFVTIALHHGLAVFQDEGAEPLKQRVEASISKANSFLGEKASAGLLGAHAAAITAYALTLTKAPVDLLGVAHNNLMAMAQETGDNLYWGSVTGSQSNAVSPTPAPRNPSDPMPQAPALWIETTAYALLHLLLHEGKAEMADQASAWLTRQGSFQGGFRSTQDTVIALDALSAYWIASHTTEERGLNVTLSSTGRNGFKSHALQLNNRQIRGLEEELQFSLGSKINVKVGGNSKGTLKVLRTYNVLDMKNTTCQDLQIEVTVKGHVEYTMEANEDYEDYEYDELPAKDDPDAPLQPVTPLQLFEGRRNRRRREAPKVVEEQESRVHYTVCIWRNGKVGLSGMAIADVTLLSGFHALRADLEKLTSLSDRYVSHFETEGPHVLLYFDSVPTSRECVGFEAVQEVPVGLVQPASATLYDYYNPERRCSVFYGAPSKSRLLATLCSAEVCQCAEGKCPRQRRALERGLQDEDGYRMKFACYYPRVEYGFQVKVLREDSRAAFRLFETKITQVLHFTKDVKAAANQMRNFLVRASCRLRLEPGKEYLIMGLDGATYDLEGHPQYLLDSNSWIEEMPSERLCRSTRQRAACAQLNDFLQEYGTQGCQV

Substance: soluble human CR1 (from UniProt P17927 42-1971) (receptor)
- time to 50% degradation of the C4bα′ chain (cofactor activity for factor I, densitometry): 15 min

— patent US20060115897A1
